From article PMC3853120 (Science (New York, N.Y.), 2013)
Like-named read-outs stand apart in the source and are kept apart here.

Columns and labels:
[1] = target: T1, oligomerized biotinylated synthetic human Aβ1-42 peptide (human, UniProt P05067 672-713, biotinylated (position not given))
[2] = target: T1, oligomerized biotinylated synthetic …; remark: listed apart in the source

Kd [1]: 206 ± 65 nM | Kd [2]: 250 nM
B1: human LilrB2 (leukocyte immunoglobulin-like receptor B2) expressed on HEK293 cells (receptor, UniProt Q8N423 22-597, looked up)
chain: QTGTIPKPTLWAEPDSVITQGSPVTLSCQGSLEAQEYRLYREKKSASWITRIRPELVKNGQFHIPSITWEHTGRYGCQYYSRARWSELSDPLVLVMTGAYPKPTLSAQPSPVVTSGGRVTLQCESQVAFGGFILCKEGEDEHPQCLNSQPHARGSSRAIFSVGPVSPNRRWSHRCYGYDLNSPYVWSSPSDLLELLVPGVSKKPSLSVQPGPVMAPGESLTLQCVSDVGYDRFVLYKEGERDLRQLPGRQPQAGLSQANFTLGPVSRSYGGQYRCYGAHNLSSECSAPSDPLDILITGQIRGTPFISVQPGPTVASGENVTLLCQSWRQFHTFLLTKAGAADAPLRLRSIHEYPKYQAEFPMSPVTSAHAGTYRCYGSLNSDPYLLSHPSEPLELVVSGPSMGSSPPPTGPISTPGPEDQPLTPTGSDPQSGLGRHLGVVIGILVAVVLLLLLLLLLFLILRHRRQGKHWTSTQRKADFQHPAGAVGPEPTDRGLQWRSSPAADAQEENLYAAVKDTQPEDGVEMDTRAAASEAPQDVTYAQLHSLTLRRKATEPPPSQEREPPAEPSIYATLAIH
